Patent US10564159

Tests used:
[1] = biological target: chimeric hTSH/rLH-R receptor (RMc4), displayed on CHO-RMc4luc cells (human TSH receptor with a segment of rat LH receptor); experiment: cell-based or functional assay
[2] = biological target: human TSH receptor (wild type), displayed on CHO-Rluc cells (human) (UniProt P16473); experiment: cell-based or functional assay

Row | Substance | Ratio of Signal/Negative, luciferase reporter, FSH 364 mIU/ml on CHO-Mc4luc cells [1] | luciferase RLU, FSH 364 mIU/ml on CHO-RMc4luc cells [1] | Ratio of Signal/Negative, luciferase reporter, FSH 364 mIU/ml on CHO-Rluc cells [2] | luciferase RLU, FSH 364 mIU/ml on CHO-Rluc cells [2] | Ratio of Signal/Negative, luciferase reporter, LH 455 mIU/ml on CHO-Mc4luc cells [1] | luciferase RLU, LH 455 mIU/ml on CHO-RMc4luc cells [1] | Ratio of Signal/Negative, luciferase reporter, LH 455 mIU/ml on CHO-Rluc cells [2] | luciferase RLU, LH 455 mIU/ml on CHO-Rluc cells [2]
1 | human follicle stimulating hormone (from UniProt P01215 25-116; P01225 19-129) (ligand) | 0.6 | 1020 RLU | 0.7 | 728 RLU | – | – | – | –
2 | human luteinizing hormone (from UniProt P01215 25-116; P01229 21-141) (ligand) | – | – | – | – | 0.9 | 1560 RLU | 0.8 | 835 RLU
